Laboratory results as given in article PMC5940361, “Human LINE-1 retrotransposition requires a metastable coiled coil and a positively charged N-terminus in L1ORF1p” (eLife, 2018).

Tests used:
[1] = target: hL1ORF1p-Δcons (non-conserved N-terminal portion of human L1ORF1p, GPHM1-E103) (human) (UniProt Q9UN81); assay: SEC-MALS; hL1ORF1p-Δcons at 5.2 mM, Superdex 75 (10/300 GL), gel filtration buffer; monomer to dimer
[2] = target: the molecule itself; assay: SEC-MALS; Superdex 200 (10/300 GL), gel filtration buffer (10 mM HEPES pH 7.5, 300 mM NaCl, 1 mM DTT)

Molecule	stoichiometry N [1]	stoichiometry N [2]
hL1ORF1p-Δcons (non-conserved N-terminal portion of human L1ORF1p, GPHM1-E103) (from UniProt Q9UN81 1-103) (domain or fragment)	2	
hL1ORF1p-ΔNTR (human L1ORF1p without the NTR, GPHMS53-M338) (domain or fragment, residues printed before S53 in the construct's description (GPHMS53-M338); not from L1ORF1p; also called remainder of human L1ORF1p; truncated trimer; not shown: His6, N-terminal, cleaved) GPHMSELREDIQTKGKEVENFEKNLEECITRITNTEKCLKELMELKTKARELREECRSLRSRCDQLEERVSAAEDEINEIKREGKFREKRIKRNEQSLQEIWDYVKRPNLRLIGVPESDVENGTKLENTLQDIIQENFPNLARQANVQIQEIQRTPQRYSSRRATPRHIIVRFTKVEMKEKMLRAAREKGRVTLKGKPIRLTADLSAETLQARREWGPIFNILKEKNFQPRISYPAKLSFISEGEIKYFIDKQMLRDFVTTRPALKELLKEALNMERNNRYQPLQNHAKM		3
hL1ORF1p-cc (coiled coil domain of human L1ORF1p, GPHMS53-Y152) (domain or fragment, residues printed before S53 in the construct's description (GPHMS53-Y152); not from L1ORF1p; human LINE-1 ORF1 protein (L1ORF1p) of the L1.3 element, residues S53-Y152, amplified from a plasmid with the M121A/M125I/M128I triple mutation; The M of GPHM probably stands at position 52 in place of Y52 (the structure is described as residues 52-152); also called L1ORF1p coiled coil domain; coiled coil …) GPHMSELREDIQTKGKEVENFEKNLEECITRITNTEKCLKELMELKTKARELREECRSLRSRCDQLEERVSAAEDEINEIKREGKFREKRIKRNEQSLQEIWDY		3
